Measurements published in US20200317768A1 (published 2020).

T1: cynomolgus monkey FcγRIIb extracellular domain with C-terminal His-tag (cynomolgus monkey)
T1 construct: Expressed in FreeStyle 293 cells and purified; also called cyno FcγRIIb; cynoFcγRIIb; not shown: C-terminal His-tag
T1 chain: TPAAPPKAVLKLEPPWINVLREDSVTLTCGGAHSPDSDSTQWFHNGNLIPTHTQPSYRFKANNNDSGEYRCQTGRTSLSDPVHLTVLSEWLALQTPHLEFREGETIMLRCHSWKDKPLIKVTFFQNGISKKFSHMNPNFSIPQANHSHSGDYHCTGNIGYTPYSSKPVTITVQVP

T2: cynomolgus monkey FcγRIIa3 extracellular domain with C-terminal His-tag (cynomolgus monkey)
T2 construct: Expressed in FreeStyle 293 cells and purified; also called cyno FcγRIIa3; cynoFcgRIIa3; not shown: C-terminal His-tag
T2 chain: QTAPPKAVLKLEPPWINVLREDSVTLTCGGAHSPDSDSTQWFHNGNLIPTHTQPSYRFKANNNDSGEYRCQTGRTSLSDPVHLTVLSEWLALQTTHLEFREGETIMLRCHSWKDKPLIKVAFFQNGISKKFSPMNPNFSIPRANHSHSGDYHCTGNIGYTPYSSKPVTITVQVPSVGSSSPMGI

T3: human FcγRIIb extracellular domain with C-terminal His-tag (human, UniProt P31994 43-217)
T3 construct: Expressed in FreeStyle 293 cells and purified; also called humanFcgRIIb; not shown: C-terminal His-tag
T3 sequence: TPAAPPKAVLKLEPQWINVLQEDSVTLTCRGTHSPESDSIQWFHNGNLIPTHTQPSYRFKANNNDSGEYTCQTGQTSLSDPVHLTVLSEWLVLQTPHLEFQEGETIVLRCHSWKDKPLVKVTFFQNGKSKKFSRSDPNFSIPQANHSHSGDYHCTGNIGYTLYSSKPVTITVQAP

T4: cynomolgus monkey FcγRIIIaS extracellular domain with C-terminal His-tag (cynomolgus monkey, UniProt Q8SPW2 21-206 at identity 1.00))
T4 construct: Expressed in FreeStyle 293 cells and purified; also called cyno FcγRIIIaS; cynoFcγRIIIaS; not shown: C-terminal His-tag
T4 chain: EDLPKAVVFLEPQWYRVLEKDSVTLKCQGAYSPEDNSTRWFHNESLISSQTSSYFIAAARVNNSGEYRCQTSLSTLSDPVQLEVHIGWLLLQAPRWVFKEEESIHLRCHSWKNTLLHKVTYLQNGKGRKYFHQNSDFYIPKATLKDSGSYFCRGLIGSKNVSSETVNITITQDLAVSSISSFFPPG

T5: cynomolgus monkey FcγRIIa1 extracellular domain with C-terminal His-tag (cynomolgus monkey)
T5 construct: Expressed in FreeStyle 293 cells and purified; also called cyno FcγRIIa1; cynoFcgRIIa1; not shown: C-terminal His-tag
T5 chain: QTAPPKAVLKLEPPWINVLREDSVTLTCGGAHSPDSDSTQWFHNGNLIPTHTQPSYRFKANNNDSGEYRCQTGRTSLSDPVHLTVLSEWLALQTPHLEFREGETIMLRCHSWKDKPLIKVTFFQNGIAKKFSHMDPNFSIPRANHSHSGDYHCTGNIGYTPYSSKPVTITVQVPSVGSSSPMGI

T6: human FcγRIIaR extracellular domain with C-terminal His-tag (human, UniProt P12318 34-217)
T6 construct: Expressed in FreeStyle 293 cells and purified; also called human FcγRIIa (type R); FcgRIIaR; not shown: C-terminal His-tag
T6 chain: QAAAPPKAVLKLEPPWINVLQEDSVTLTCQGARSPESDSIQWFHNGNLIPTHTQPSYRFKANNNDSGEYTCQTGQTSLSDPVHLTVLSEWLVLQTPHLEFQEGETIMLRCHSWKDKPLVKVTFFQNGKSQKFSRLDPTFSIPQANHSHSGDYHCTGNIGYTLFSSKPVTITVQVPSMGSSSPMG

T7: human FcγRIIaH extracellular domain with C-terminal His-tag (human, UniProt P12318 34-217)
T7 construct: Expressed in FreeStyle 293 cells and purified; also called human FcγRIIa (type H); FcgRIIaH; not shown: C-terminal His-tag
T7 sequence: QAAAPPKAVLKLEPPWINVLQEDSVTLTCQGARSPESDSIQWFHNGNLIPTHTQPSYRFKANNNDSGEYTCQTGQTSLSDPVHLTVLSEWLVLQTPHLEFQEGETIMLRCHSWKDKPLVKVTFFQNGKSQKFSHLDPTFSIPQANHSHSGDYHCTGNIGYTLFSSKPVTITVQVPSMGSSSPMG

T8: cynomolgus monkey FcγRIIa2 extracellular domain with C-terminal His-tag (cynomolgus monkey)
T8 construct: Expressed in FreeStyle 293 cells and purified; also called cyno FcγRIIa2; cynoFcgRIIa2; not shown: C-terminal His-tag
T8 chain: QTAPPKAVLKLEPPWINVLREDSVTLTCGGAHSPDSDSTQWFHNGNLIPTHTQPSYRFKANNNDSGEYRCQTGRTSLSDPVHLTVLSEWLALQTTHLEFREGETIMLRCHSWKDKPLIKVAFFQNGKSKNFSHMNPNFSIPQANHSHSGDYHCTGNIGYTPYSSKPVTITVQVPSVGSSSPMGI


Tests used:
Assay in all cases: SPR (Biacore); KD of SG1 divided by KD of the variant for this FcgR;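 also: relative to parent M103205H795-SG1 carrying the SG1 human heavy chain constant region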
[1] = target: T1, cynomolgus monkey FcγRIIb extracellular …
Method: (§1) Regarding such interactions, KD values were calculated using the following 1:1 binding model described in BIACORE® T100 Software Handbook BR1006-48 Edition AE.
(§2) The behavior of interacting molecules according to the 1:1 binding model on BIACORE® can be described by Equation 1: Req=C·R max/(KD+C)+RI, wherein, Req is a plot of steady-state binding levels to analyte concentration. C is concentration, RI is bulk refractive index contribution in the sample, and Rmax is analyte binding capacity of the surface. When this equation is rearranged, KD can be expressed as Equation 2: KD=C·Rmax/(Req−RI)−C. KD can be calculated by substituting the values of Rmax, RI, and C into Equation 1 or Equation 2. From the current measurement conditions, RI=0, C=2 μmol/L can be used.
(§3) The variants were expressed using M103202L889-SK1 as the light chain and their affinity was analyzed.

[2] = target: T2, cynomolgus monkey FcγRIIa3 …
Method: as §1, §2, §3

[3] = target: T3, human FcγRIIb extracellular domain with …
Method: as §1, §2, §3

[4] = target: T4, cynomolgus monkey FcγRIIIaS …
Method: as §1, §2, §3

[5] = target: T9, human FcγRIIIaV extracellular domain with C-terminal His-tag (human, UniProt P08637 17-208)
T9 construct: Expressed in FreeStyle 293 cells and purified; also called FcgRIIIaV; not shown: C-terminal His-tag
Method: as §1, §2, §3

[6] = target: T5, cynomolgus monkey FcγRIIa1 …
Method: as §1, §2, §3

[7] = target: T6, human FcγRIIaR extracellular domain …
Method: as §1, §2, §3

[8] = target: T7, human FcγRIIaH extracellular domain …
Method: as §1, §2, §3

[9] = target: T8, cynomolgus monkey FcγRIIa2 …
Method: as §1, §2, §3

T9 sequence (P08637 17-208 F176V): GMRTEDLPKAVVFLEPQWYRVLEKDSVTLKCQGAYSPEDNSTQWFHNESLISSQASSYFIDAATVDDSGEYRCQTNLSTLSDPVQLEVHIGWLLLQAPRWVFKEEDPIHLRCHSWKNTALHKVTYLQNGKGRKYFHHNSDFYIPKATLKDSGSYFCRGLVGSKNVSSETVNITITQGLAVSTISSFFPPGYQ

Binder	KD fold (SG1 = 1) [1]	KD fold (SG1 = 1) [2]	KD fold (SG1 = 1) [3]	KD fold (SG1 = 1) [4]	KD fold (SG1 = 1) [5]	KD fold (SG1 = 1) [6]	KD fold (SG1 = 1) [7]	KD fold (SG1 = 1) [8]	KD fold (SG1 = 1) [9]
M103205H795-MY198 / M103202L889-SK1 (antibody, human IgG1, kappa, Fc variant of M103205H795-SG1, expressed with M103202L889-SK1 as light chain) heavy: QVTLKESGPVLVKPTETLTLTCTVSGIDLSHDDISWVRQAPGKGLEWVGIISYAGSTYYASWAKGRLTISKDTSKNQVVLTMTNMDPVDTATYYCARGVPAYSHGGDLWGQGTLVTVSSASTKGPSVFPLAPSSKSTSGGTAALGCLVKDYFPEPVTVSWNSGALTSGVHTFPAVLQSSGLYSLSSVVTVPSSSLGTQTYICNVNHKPSNTKVDKKVEPKSCDKTHTCPPCPAPELLNGPVVFLFPPKPKDTLMISRTPEVTCVVVDVSDEDPEVKFNWYVDGVEVHNAKTKPREEQYNSTYRVVSVLTVLHQDWLNGKEYKCKVSNKALPKPIEKTISKAKGQPREPQVYTLPPSREEMTKNQVSLTCLVKGFYPSDIAVEWESNGQPENNYKTTPMVLDSDGSFFLYSKLTVDKSRWQQGNVFSCSVMHEALHNHYTQKSLSLSP light: DIVMTQSPATLSLSPGERATLSCTSSQSVYHANWLSWFQQKPGQPPKLLIYWASTLAYGVPSRFSGSGSGTDFTLTISSLQPEDAATYYCAGGYGGGRYAFGQGTKVEIKRTVAAPSVFIFPPSDEQLKSGTASVVCLLNNFYPREAKVQWKVDNALQSGNSQESVTEQDSKDSTYSLSSTLTLSKADYEKHKVYACEVTHQGLSSPVTKSFNRGEC	7.5 fold	12.1 fold	11 fold	0.18 fold	0.12 fold	7.3 fold	1.4 fold	1.3 fold	15.5 fold
M103205H795-MY209 / M103202L889-SK1 (antibody, human IgG1, kappa, Fc variant of M103205H795-SG1, expressed with M103202L889-SK1 as light chain) heavy: QVTLKESGPVLVKPTETLTLTCTVSGIDLSHDDISWVRQAPGKGLEWVGIISYAGSTYYASWAKGRLTISKDTSKNQVVLTMTNMDPVDTATYYCARGVPAYSHGGDLWGQGTLVTVSSASTKGPSVFPLAPSSKSTSGGTAALGCLVKDYFPEPVTVSWNSGALTSGVHTFPAVLQSSGLYSLSSVVTVPSSSLGTQTYICNVNHKPSNTKVDKKVEPKSCDKTHTCPPCPAPELLNGPSVFLFPPKPKDTLMISRTPEVTCVVVDVSDEDPEVKFNWYVDGVEVHNAKTKPREELYNSTYRVVSVLTVLHQDWLNGKEYKCKVSNTALPKPIEKTISKAKGQPREPQVYTLPPSREEMTKNQVSLTCLVKGFYPSDIAVEWESNGQPENNYKTTPPVLDSDGSFFLYSKLTVDKSRWQQGNVFSCSVMHEALHNHYTQKSLSLSP light: DIVMTQSPATLSLSPGERATLSCTSSQSVYHANWLSWFQQKPGQPPKLLIYWASTLAYGVPSRFSGSGSGTDFTLTISSLQPEDAATYYCAGGYGGGRYAFGQGTKVEIKRTVAAPSVFIFPPSDEQLKSGTASVVCLLNNFYPREAKVQWKVDNALQSGNSQESVTEQDSKDSTYSLSSTLTLSKADYEKHKVYACEVTHQGLSSPVTKSFNRGEC	–	5.9 fold	9.2 fold	0.16 fold	0.06 fold	5.1 fold	1.3 fold	1.2 fold	7.4 fold
M103205H795-MY199 / M103202L889-SK1 (antibody, human IgG1, kappa, Fc variant of M103205H795-SG1, expressed with M103202L889-SK1 as light chain) heavy: QVTLKESGPVLVKPTETLTLTCTVSGIDLSHDDISWVRQAPGKGLEWVGIISYAGSTYYASWAKGRLTISKDTSKNQVVLTMTNMDPVDTATYYCARGVPAYSHGGDLWGQGTLVTVSSASTKGPSVFPLAPSSKSTSGGTAALGCLVKDYFPEPVTVSWNSGALTSGVHTFPAVLQSSGLYSLSSVVTVPSSSLGTQTYICNVNHKPSNTKVDKKVEPKSCDKTHTCPPCPAPELLNGPSVFLFPPKPKDTLMISRTPEVTCVVVDVSEEDPEVKFNWYVDGVEVHNAKTKPREEQYNSTYRVVSVLTVLHQDWLNGKEYKCKVSNKALPKPIEKTISKAKGQPREPQVYTLPPSREEMTKNQVSLTCLVKGFYPSDIAVEWESNGQPENNYKTTPPVLDSDGSFFLYSKLTVDKSRWQQGNVFSCSVMHEALHNHYTQKSLSLSP light: DIVMTQSPATLSLSPGERATLSCTSSQSVYHANWLSWFQQKPGQPPKLLIYWASTLAYGVPSRFSGSGSGTDFTLTISSLQPEDAATYYCAGGYGGGRYAFGQGTKVEIKRTVAAPSVFIFPPSDEQLKSGTASVVCLLNNFYPREAKVQWKVDNALQSGNSQESVTEQDSKDSTYSLSSTLTLSKADYEKHKVYACEVTHQGLSSPVTKSFNRGEC	1.6 fold	1.4 fold	2.4 fold	0.09 fold	0.06 fold	1.7 fold	0.4 fold	0.6 fold	2.6 fold
